Positions count from the first letter of the chain named. Names and notes keep the numbering of the source. Some results are limits rather than exact numbers.

From patent US20250188188A1 (DIANTHUS THERAPEUTICS OPCO, published 2025) come the findings set out here.

For assay [1], the target named is T1, active human C1s purified from human serum (CompTech, Tyler, TX, catalog number A104) (human, UniProt P09871 16-437; P09871 438-688).
T1 sequence 1: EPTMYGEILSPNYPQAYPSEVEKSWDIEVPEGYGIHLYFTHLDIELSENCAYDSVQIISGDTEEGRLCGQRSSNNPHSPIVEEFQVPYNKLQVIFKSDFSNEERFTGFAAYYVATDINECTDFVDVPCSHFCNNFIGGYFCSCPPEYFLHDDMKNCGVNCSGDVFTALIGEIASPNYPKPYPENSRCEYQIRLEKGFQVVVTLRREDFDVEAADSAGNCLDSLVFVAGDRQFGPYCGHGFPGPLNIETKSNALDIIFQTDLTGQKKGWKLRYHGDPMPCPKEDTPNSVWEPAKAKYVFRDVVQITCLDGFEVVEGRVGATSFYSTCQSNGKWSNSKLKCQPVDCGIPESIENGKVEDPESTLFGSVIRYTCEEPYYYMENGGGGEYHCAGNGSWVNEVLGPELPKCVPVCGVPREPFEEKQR
T1 sequence 2: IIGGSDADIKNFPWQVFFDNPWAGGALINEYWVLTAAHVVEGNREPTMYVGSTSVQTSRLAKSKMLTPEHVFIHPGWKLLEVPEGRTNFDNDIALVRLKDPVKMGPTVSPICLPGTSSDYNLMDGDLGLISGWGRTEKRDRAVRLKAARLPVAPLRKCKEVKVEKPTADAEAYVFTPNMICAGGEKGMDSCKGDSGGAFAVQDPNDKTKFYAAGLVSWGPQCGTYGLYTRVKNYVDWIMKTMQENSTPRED
Description: cell-based or functional assay.

The target of assay [2] is T1, active human C1s purified from human …. Briefly: cell-based or functional assay. The source holds these as a separate data set.
Assay [3] shares this target. Description: cell-based or functional assay. This is another data set of the same source.
For assay [4] the target is unchanged. Description: cell-based or functional assay. The source holds these as a separate data set.
Assay [5] shares this target. Briefly: SPR (Biacore 4000), 37 C pH 7.4, antibody captured via goat anti-human antibody, C1s in solution, n=4. The protocol:
(§1) Binding of MAB39 and MAB9 to Human Active C1s at 37° C./pH 7.4 Measured by Surface Plasmon Resonance. Human active C1s purified from serum was procured from Complement Technologies, Tyler, TX (catalog number A104). Studies to evaluate MAB39 and MAB9 binding to human active C1s at 37° C. were performed on a Biacore 4000 and Biacore T100 (Cytiva, Marlborough, MA), respectively. Goat anti-human antibody (ThermoFisher, Waltham, MA, USA, catalog number H10500) was amine-coupled to a C1 sensor chip (Cytiva, Marlborough, MA, USA, catalog number BR100535). MAB39 was diluted to 6.67 nM and MAB9 was diluted to 10 nM in 50 mM HEPES pH 7.4, 150 mM NaCl, 1.3 mM Ca, 0.02% Tween-20, 1 mg/mL BSA (HBS). MAB39 was captured for 60 seconds to produce surface densities of 200 RU and MAB9 was captured for 30 seconds to produce surface densities of 10 to 20 RU. Human active C1s was tested for binding using a 3-fold titration series in HBS with a maximum concentration of 12.3 nM for MAB39 and 16 nM for MAB9. Data were processed by subtracting responses from a reference surface as well as a buffer injection. The processed data were fitted with a 1:1 interaction model including baseline offset and bulk refractive index shifts in the association phase. Surfaces were regenerated with a 12 second injection of 1/100 dilution of H3PO4 for MAB39 and 12 second injection of 1/50 dilution of H3PO4 for MAB9. Replicate experiments were performed (n=2 for MAB9 and n=4 for MAB39).
Comparison of Binding Affinities of MAB39 and MAB9 to Human Active C1s by Surface Plasmon Resonance. The human active C1s association constant (ka), disassociation constant (kd) and affinity (KD) for MAB39 and MAB9 were determined in separate experiments (Table 17). […] Statistical analysis was performed using paired t-test, with p value of 0.6168.
(In general: SPR reads the build-up and loss of mass on a sensor chip optically.)

Assay [6] shares this target. Description: SPR, direct comparison.
For assay [7] the target is unchanged. Description: cell-based or functional assay. The source holds these as a separate data set.
Assay [8] has the same target. Briefly: SPR (Biacore T100), 37 C pH 7.4, antibody captured via goat anti-human antibody, C1s in solution, n=2. Here is the method:
as §1, with “The processed data were fitted with a 1:1 interaction model including baseline offset and bulk refractive index shifts in the association phase. Surfaces were regenerated with a 12 second injection of 1/100 dilution of H3PO4 for MAB39 and 12 second injection of 1/50 dilution of H3PO4 for MAB9. Replicate experiments were performed (n=2 for MAB9 and n=4 for MAB39).” left out
(§2) Comparison of Binding Affinities of MAB39 and MAB9 to Human Active C1s by Surface Plasmon Resonance. The human active C1s association constant (ka), disassociation constant (kd) and affinity (KD) for MAB39 and MAB9 were determined in separate experiments (Table 17). […]

For assay [9] the target is unchanged. Briefly: SPR (Biacore T100), 37 C pH 7.4, antibody captured via goat anti-human antibody, C1s in solution, n=2; Table 17 experiment, apart from Table 12. Here is the method:
as §1, with “The processed data were fitted with a 1:1 interaction model including baseline offset and bulk refractive index shifts in the association phase. Surfaces were regenerated with a 12 second injection of 1/100 dilution of H3PO4 for MAB39 and 12 second injection of 1/50 dilution of H3PO4 for MAB9. Replicate experiments were performed (n=2 for MAB9 and n=4 for MAB39).” left out
as §2

B1: IgG4-MAB4 (MAB4 in human IgG4 with S228P, L235E and YTE) (antibody, V domains shown)
VH: QVQLVESGGGLVKPGGSLRLSCAASGFTFSDYYMSWIRQAPGKGLEWVSYISRSGSTKYYADSVKGRFTISRDNAKNSLYLQMNSLRAEDTAVYYCARDESQYALDYWGQGTLVTVSS
VL: DIQMTQSPSSLSASVGDRVTITCQASQDISNYLNWYQQKPGKAPKLLIYDASNLETGVPSRFSGSGSGTDFTFTISSLQPEDIATYYCHQYEDYPLTFGGGTKVEIKR
With B1, the “IC50, inhibition of Wieslab complement classical pathway (C5b-9 ELISA), 1% human serum” value in assay [1] was 2.6 nM. Also, in assay [2], the “IC50, inhibition of sensitized hRBC lysis in 25% human serum, Donor 1” value was 14.9 nM; the “IC50, inhibition of sensitized hRBC lysis in 25% human serum, Donor 2” value was found to be 17.1 nM; the “IC50, inhibition of sensitized hRBC lysis in 25% human serum, Donor 3” value was 6.6 nM. In addition, the “IC50, inhibition of sensitized hRBC lysis in 25% human serum” value in assay [3] was 17.5 nM. Further, in assay [4], the “IC50, inhibition of C3b deposition on sensitized hRBCs in 7.5% human serum (flow cytometry), Donor A” value is 69.2 nM; the “IC50, inhibition of C3b deposition on sensitized hRBCs in 7.5% human serum (flow cytometry), Donor B (1)” value is 193 nM; the “IC50, inhibition of C3b deposition on sensitized hRBCs in 7.5% human serum (flow cytometry), Donor B (2)” value was 262 nM.

B2: IgG4-MAB39 (MAB39 in human IgG4 with S228P, L235E and YTE) (antibody)
heavy: EVQLVESGGGLVKPGGSLRLSCAASGFTFSDYYMSWIRQAPGKGLEWVSYISRSGSTKYYADSVKGRFTISRDNAKNSLYLQMNSLRAEDTAVYYCARDENYALDWWGQGTLVTVSSASTKGPSVFPLAPCSRSTSESTAALGCLVKDYFPEPVTVSWNSGALTSGVHTFPAVLQSSGLYSLSSVVTVPSSSLGTKTYTCNVDHKPSNTKVDKRVESKYGPPCPPCPAPEFEGGPSVFLFPPKPKDTLYITREPEVTCVVVDVSQEDPEVQFNWYVDGVEVHNAKTKPREEQFNSTYRVVSVLTVLHQDWLNGKEYKCKVSNKGLPSSIEKTISKAKGQPREPQVYTLPPSQEEMTKNQVSLTCLVKGFYPSDIAVEWESNGQPENNYKTTPPVLDSDGSFFLYSRLTVDKSRWQEGNVFSCSVMHEALHNHYTQKSLSLSLG
light: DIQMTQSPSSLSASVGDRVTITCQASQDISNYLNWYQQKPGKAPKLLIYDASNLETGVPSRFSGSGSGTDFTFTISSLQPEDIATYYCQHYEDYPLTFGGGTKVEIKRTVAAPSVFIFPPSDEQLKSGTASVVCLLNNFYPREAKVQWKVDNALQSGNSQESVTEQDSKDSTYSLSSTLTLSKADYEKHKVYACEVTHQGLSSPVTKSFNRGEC
notes: Differs from MAB9 only in the N-terminal VH residue (E instead of Q); also called IgG-MAB39
For the molecule B2, in assay [5], the affinity, expressed as Kd, was 0.0105 nM; the koff (as a rule, the first-order rate constant of dissociation) was 0.000125 s⁻¹; the on-rate (kon) (as a rule, the rate constant with which the complex forms) worked out at 1.19e+07 M⁻¹ s⁻¹.

B3: IgG4-MAB9 (MAB9 in human IgG4 with S228P, L235E and YTE) (antibody)
heavy: B2 heavy with E1Q
light: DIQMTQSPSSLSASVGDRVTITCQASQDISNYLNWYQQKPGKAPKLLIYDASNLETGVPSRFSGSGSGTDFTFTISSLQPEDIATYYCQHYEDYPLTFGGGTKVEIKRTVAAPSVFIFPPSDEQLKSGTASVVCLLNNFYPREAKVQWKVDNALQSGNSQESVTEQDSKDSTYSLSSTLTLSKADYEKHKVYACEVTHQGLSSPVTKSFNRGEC
notes: also called MAB9 with constant domain PE and YTE mutations
Turning to B3, the “fold higher affinity than MAB2 (US20220380483A1)” value in assay [6] was about 10 fold. Also, in assay [7], the “IC50 in the RBC lysis assay (FIG. 4C)” value stood at 17.6 nM and the “fold improvement in potency (IC50, RBC lysis assay) against MAB2 (US20220380483A1)” value was over 3 fold. In addition, the “IC50, inhibition of Wieslab complement classical pathway (C5b-9 ELISA), 1% human serum” value in [1] amounted to 0.78 nM. Also, in assay [2], the “IC50, inhibition of sensitized hRBC lysis in 25% human serum, Donor 1” value was found to be 12.9 nM; the “IC50, inhibition of sensitized hRBC lysis in 25% human serum, Donor 2” value was 22.1 nM; the “IC50, inhibition of sensitized hRBC lysis in 25% human serum, Donor 3” value was determined as 5.8 nM. For the same molecule, in [3], the “IC50, inhibition of sensitized hRBC lysis in 25% human serum” value is 17.6 nM. For the same molecule, in assay [4], the “IC50, inhibition of C3b deposition on sensitized hRBCs in 7.5% human serum (flow cytometry), Donor A” value came to 64.1 nM; the “IC50, inhibition of C3b deposition on sensitized hRBCs in 7.5% human serum (flow cytometry), Donor B (1)” value came to 124 nM; the “IC50, inhibition of C3b deposition on sensitized hRBCs in 7.5% human serum (flow cytometry), Donor B (2)” value was determined as 202 nM. In [8], the koff worked out at 0.00012 s⁻¹ and the kon worked out at 1.69e+07 M⁻¹ s⁻¹. In assay [9], the affinity, expressed as Kd, was 0.0071 nM.
